Literature values in article PMC6340931.
Read-outs that look alike come from different tables or passages of the source.

Experiments:
[1] = molecular target: Sortilin-derived propeptide (SDP) Gln1-Arg44 (Homo sapiens) (UniProt Q99523)
[2] = molecular target: Neurotensin (Homo sapiens) (UniProt P30990)
[3] = molecular target: Sortilin-derived propeptide (SDP) Gln1-Arg44 (Homo sapiens) (UniProt Q99523); remark: listed apart in the source

## TREK-1 (from UniProt O95069)
[1]
  Kd: 5 nM

## Sortilin (from UniProt Q99523)
[2]
  Kd: 0.3 nM

## Sortilin mature (from UniProt Q99523)
[3]
  Kd: 5 nM
